Test results from patent US20220402995A1 (TOSOH, published 2022).

Target: T1, VLP2 (virus-like particles of AAV2) (AAV2, UniProt P03135 1-735; P03135 1-598; P03135 1-533)
T1 construct: Empty AAV2 capsid; background says about 60 protein molecules, VP1:VP2:VP3 = 1:1:10; Immobilised on the ELISA plate
Assay: ELISA on VLP2; binding after 43°C 15 min / untreated

T1 sequence (P03135 whole entry, chain 1 of 3): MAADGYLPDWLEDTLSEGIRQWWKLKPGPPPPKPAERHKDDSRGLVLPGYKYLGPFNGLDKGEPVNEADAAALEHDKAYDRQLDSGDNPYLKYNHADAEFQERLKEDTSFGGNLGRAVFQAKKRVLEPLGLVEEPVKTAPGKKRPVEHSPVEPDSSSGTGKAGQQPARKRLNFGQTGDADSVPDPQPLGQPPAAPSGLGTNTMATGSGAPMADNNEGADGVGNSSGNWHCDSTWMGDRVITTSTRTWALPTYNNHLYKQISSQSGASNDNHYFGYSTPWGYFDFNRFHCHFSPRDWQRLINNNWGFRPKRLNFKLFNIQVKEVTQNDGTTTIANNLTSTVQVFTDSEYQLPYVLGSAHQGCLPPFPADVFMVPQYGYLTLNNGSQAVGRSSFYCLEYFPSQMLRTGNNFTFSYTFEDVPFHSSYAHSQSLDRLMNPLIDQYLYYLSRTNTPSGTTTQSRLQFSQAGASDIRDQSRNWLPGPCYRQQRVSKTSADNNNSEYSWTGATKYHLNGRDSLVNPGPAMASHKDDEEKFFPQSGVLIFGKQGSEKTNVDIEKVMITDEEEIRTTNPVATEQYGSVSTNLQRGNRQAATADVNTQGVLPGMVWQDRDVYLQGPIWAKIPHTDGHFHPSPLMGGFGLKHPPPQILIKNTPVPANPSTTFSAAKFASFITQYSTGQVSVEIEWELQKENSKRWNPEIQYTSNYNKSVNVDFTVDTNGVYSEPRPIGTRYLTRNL
T1 sequence (P03135 139-735, tags left off, chain 2 of 3): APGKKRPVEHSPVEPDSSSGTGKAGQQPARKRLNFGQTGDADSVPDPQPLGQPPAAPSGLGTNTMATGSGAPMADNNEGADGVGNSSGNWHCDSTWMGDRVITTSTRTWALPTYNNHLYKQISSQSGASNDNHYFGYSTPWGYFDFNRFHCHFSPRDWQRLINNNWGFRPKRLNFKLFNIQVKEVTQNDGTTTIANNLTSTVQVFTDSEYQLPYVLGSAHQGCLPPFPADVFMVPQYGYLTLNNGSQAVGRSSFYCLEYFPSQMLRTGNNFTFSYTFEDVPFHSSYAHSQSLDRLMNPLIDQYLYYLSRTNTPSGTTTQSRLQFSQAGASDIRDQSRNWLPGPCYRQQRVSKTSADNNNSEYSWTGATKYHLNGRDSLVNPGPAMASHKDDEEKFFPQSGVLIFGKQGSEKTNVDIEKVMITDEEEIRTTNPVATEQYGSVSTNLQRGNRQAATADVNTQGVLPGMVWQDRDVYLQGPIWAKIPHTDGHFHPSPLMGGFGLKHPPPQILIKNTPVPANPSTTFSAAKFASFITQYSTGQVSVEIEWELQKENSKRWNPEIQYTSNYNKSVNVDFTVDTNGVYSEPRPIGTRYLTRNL
T1 sequence (P03135 203-735, chain 3 of 3): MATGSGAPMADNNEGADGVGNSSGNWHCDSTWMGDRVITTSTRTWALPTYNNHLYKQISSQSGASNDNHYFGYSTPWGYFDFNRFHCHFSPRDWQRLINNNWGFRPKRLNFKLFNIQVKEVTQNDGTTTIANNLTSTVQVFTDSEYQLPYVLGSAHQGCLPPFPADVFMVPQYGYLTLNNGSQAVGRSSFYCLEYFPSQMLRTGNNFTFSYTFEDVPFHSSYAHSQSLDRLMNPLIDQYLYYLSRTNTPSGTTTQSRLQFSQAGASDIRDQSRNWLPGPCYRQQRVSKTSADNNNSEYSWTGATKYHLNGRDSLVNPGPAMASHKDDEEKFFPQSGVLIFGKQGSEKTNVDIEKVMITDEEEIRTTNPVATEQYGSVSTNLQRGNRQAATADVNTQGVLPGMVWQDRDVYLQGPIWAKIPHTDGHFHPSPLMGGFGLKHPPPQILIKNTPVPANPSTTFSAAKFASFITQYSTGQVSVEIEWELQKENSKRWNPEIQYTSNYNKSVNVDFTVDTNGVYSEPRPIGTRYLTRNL

B1: AAV-binding protein No. 20 (Lys399Glu) (receptor)
chain: MGSAGESVQITLPKNEVQLNAYVLQEPPKGETYTYDWQLITHPRDYSGEMEGKHSQILKLSKLTPGLYEFKVIVEGQNAHGEGYVNVTVEPEPRKNRPPIAIVSPQFQEISLPTTSTVIDGSQSTDDDKIVQYHWEELKGPLREEKISEDTAILKLSKLVPGNYTFSLTVVDSDGATNSTTANLTVNKAVDHHHHHH
Question: Which “Residual activity [%]” value does the source give for B1 here?
Answer: The value was 63.3%.

B2: AAV-binding protein No. 26 (Asn329Tyr, Lys399Arg) (receptor)
chain: MGSAGESVQITLPKNEVQLYAYVLQEPPKGETYTYDWQLITHPRDYSGEMEGKHSQILKLSKLTPGLYEFKVIVEGQNAHGEGYVNVTVRPEPRKNRPPIAIVSPQFQEISLPTTSTVIDGSQSTDDDKIVQYHWEELKGPLREEKISEDTAILKLSKLVPGNYTFSLTVVDSDGATNSTTANLTVNKAVDHHHHHH
Question: B2 was tested. Which “Residual activity [%]” value did it give?
Answer: Its value is 61.9%.

B3: AAV-binding protein No. 39 (Ile366Thr, Gln441Leu) (receptor)
chain: MGSAGESVQITLPKNEVQLNAYVLQEPPKGETYTYDWQLITHPRDYSGEMEGKHSQTLKLSKLTPGLYEFKVIVEGQNAHGEGYVNVTVKPEPRKNRPPIAIVSPQFQEISLPTTSTVIDGSQSTDDDKIVLYHWEELKGPLREEKISEDTAILKLSKLVPGNYTFSLTVVDSDGATNSTTANLTVNKAVDHHHHHH
Question: With B3 as the binder, how does the “Residual activity [%]” value read?
Answer: The value was 65.5%.

B4: AAV-binding protein No. 50 (Val332Gln, Tyr342Cys, Val412Ala) (receptor)
chain: MGSAGESVQITLPKNEVQLNAYQLQEPPKGETCTYDWQLITHPRDYSGEMEGKHSQILKLSKLTPGLYEFKVIVEGQNAHGEGYVNVTVKPEPRKNRPPIAIASPQFQEISLPTTSTVIDGSQSTDDDKIVQYHWEELKGPLREEKISEDTAILKLSKLVPGNYTFSLTVVDSDGATNSTTANLTVNKAVDHHHHHH
Question: Which “Residual activity [%]” value does the source give for B4 here?
Answer: Its value is 80.3%.

B5: AAV-binding protein No. 48 (Ala330Gly, Gln347Pro, Lys371Glu) (receptor)
chain: MGSAGESVQITLPKNEVQLNGYVLQEPPKGETYTYDWPLITHPRDYSGEMEGKHSQILKLSELTPGLYEFKVIVEGQNAHGEGYVNVTVKPEPRKNRPPIAIVSPQFQEISLPTTSTVIDGSQSTDDDKIVQYHWEELKGPLREEKISEDTAILKLSKLVPGNYTFSLTVVDSDGATNSTTANLTVNKAVDHHHHHH
Question: Which “Residual activity [%]” value does the source give for B5 here?
Answer: Its value is 88.4%.

B6: AAV-binding protein No. 38 (Gln365Arg, Gln415Leu) (receptor)
chain: MGSAGESVQITLPKNEVQLNAYVLQEPPKGETYTYDWQLITHPRDYSGEMEGKHSRILKLSKLTPGLYEFKVIVEGQNAHGEGYVNVTVKPEPRKNRPPIAIVSPLFQEISLPTTSTVIDGSQSTDDDKIVQYHWEELKGPLREEKISEDTAILKLSKLVPGNYTFSLTVVDSDGATNSTTANLTVNKAVDHHHHHH
Question: With B6 as the binder, how does the “Residual activity [%]” value read?
Answer: The value was 65.3%.

B7: AAV-binding protein No. 28 (Tyr331Cys, Glu384Gly) (receptor)
chain: MGSAGESVQITLPKNEVQLNACVLQEPPKGETYTYDWQLITHPRDYSGEMEGKHSQILKLSKLTPGLYEFKVIVGGQNAHGEGYVNVTVKPEPRKNRPPIAIVSPQFQEISLPTTSTVIDGSQSTDDDKIVQYHWEELKGPLREEKISEDTAILKLSKLVPGNYTFSLTVVDSDGATNSTTANLTVNKAVDHHHHHH
Question: How did the “Residual activity [%]” value turn out when B7 was run?
Answer: The value was 83.7%.

B8: AAV-binding protein No. 24 (Asn492Asp) (receptor)
chain: MGSAGESVQITLPKNEVQLNAYVLQEPPKGETYTYDWQLITHPRDYSGEMEGKHSQILKLSKLTPGLYEFKVIVEGQNAHGEGYVNVTVKPEPRKNRPPIAIVSPQFQEISLPTTSTVIDGSQSTDDDKIVQYHWEELKGPLREEKISEDTAILKLSKLVPGNYTFSLTVVDSDGATNSTTADLTVNKAVDHHHHHH
Question: B8 was tested. Which “Residual activity [%]” value did it give?
Answer: Its value is 63.2%.

B9: AAV-binding protein No. 46 (Asn329Asp, Ile366Thr, Lys368Arg) (receptor)
chain: MGSAGESVQITLPKNEVQLDAYVLQEPPKGETYTYDWQLITHPRDYSGEMEGKHSQTLRLSKLTPGLYEFKVIVEGQNAHGEGYVNVTVKPEPRKNRPPIAIVSPQFQEISLPTTSTVIDGSQSTDDDKIVQYHWEELKGPLREEKISEDTAILKLSKLVPGNYTFSLTVVDSDGATNSTTANLTVNKAVDHHHHHH
Question: How did the “Residual activity [%]” value turn out when B9 was run?
Answer: The value was 49.3%.

B10: AAV-binding protein No. 21 (Tyr442Phe) (receptor)
chain: MGSAGESVQITLPKNEVQLNAYVLQEPPKGETYTYDWQLITHPRDYSGEMEGKHSQILKLSKLTPGLYEFKVIVEGQNAHGEGYVNVTVKPEPRKNRPPIAIVSPQFQEISLPTTSTVIDGSQSTDDDKIVQFHWEELKGPLREEKISEDTAILKLSKLVPGNYTFSLTVVDSDGATNSTTANLTVNKAVDHHHHHH
Question: How did the “Residual activity [%]” value turn out when B10 was run?
Answer: Its value is 48.7%.

B11: AAV-binding protein No. 42 (Ile319Phe, Pro322Leu, Lys448Arg) (receptor)
chain: MGSAGESVQFTLLKNEVQLNAYVLQEPPKGETYTYDWQLITHPRDYSGEMEGKHSQILKLSKLTPGLYEFKVIVEGQNAHGEGYVNVTVKPEPRKNRPPIAIVSPQFQEISLPTTSTVIDGSQSTDDDKIVQYHWEELRGPLREEKISEDTAILKLSKLVPGNYTFSLTVVDSDGATNSTTANLTVNKAVDHHHHHH
Question: How did the “Residual activity [%]” value turn out when B11 was run?
Answer: The value was 56.6%.

B12: AAV-binding protein No. 33 (Tyr344His, His363Arg) (receptor)
chain: MGSAGESVQITLPKNEVQLNAYVLQEPPKGETYTHDWQLITHPRDYSGEMEGKRSQILKLSKLTPGLYEFKVIVEGQNAHGEGYVNVTVKPEPRKNRPPIAIVSPQFQEISLPTTSTVIDGSQSTDDDKIVQYHWEELKGPLREEKISEDTAILKLSKLVPGNYTFSLTVVDSDGATNSTTANLTVNKAVDHHHHHH
Question: With B12 as the binder, how does the “Residual activity [%]” value read?
Answer: The value was 82.2%.

B13: AAV-binding protein No. 35 (Gln347Leu, Thr373Ala) (receptor)
chain: MGSAGESVQITLPKNEVQLNAYVLQEPPKGETYTYDWLLITHPRDYSGEMEGKHSQILKLSKLAPGLYEFKVIVEGQNAHGEGYVNVTVKPEPRKNRPPIAIVSPQFQEISLPTTSTVIDGSQSTDDDKIVQYHWEELKGPLREEKISEDTAILKLSKLVPGNYTFSLTVVDSDGATNSTTANLTVNKAVDHHHHHH
Question: For B13, which “Residual activity [%]” value is on record?
Answer: Its value is 85.9%.

B14: AAV-binding protein No. 22 (Leu477Pro) (receptor)
chain: MGSAGESVQITLPKNEVQLNAYVLQEPPKGETYTYDWQLITHPRDYSGEMEGKHSQILKLSKLTPGLYEFKVIVEGQNAHGEGYVNVTVKPEPRKNRPPIAIVSPQFQEISLPTTSTVIDGSQSTDDDKIVQYHWEELKGPLREEKISEDTAILKLSKLVPGNYTFSPTVVDSDGATNSTTANLTVNKAVDHHHHHH
Question: With B14 as the binder, how does the “Residual activity [%]” value read?
Answer: Its value is 79.9%.

B15: AAV-binding protein No. 31 (Tyr342His, Ile349Thr) (receptor)
chain: MGSAGESVQITLPKNEVQLNAYVLQEPPKGETHTYDWQLTTHPRDYSGEMEGKHSQILKLSKLTPGLYEFKVIVEGQNAHGEGYVNVTVKPEPRKNRPPIAIVSPQFQEISLPTTSTVIDGSQSTDDDKIVQYHWEELKGPLREEKISEDTAILKLSKLVPGNYTFSLTVVDSDGATNSTTANLTVNKAVDHHHHHH
Question: How did the “Residual activity [%]” value turn out when B15 was run?
Answer: The value was 66.8%.

B16: AAV-binding protein No. 34 (Trp346Arg, Glu458Gly) (receptor)
chain: MGSAGESVQITLPKNEVQLNAYVLQEPPKGETYTYDRQLITHPRDYSGEMEGKHSQILKLSKLTPGLYEFKVIVEGQNAHGEGYVNVTVKPEPRKNRPPIAIVSPQFQEISLPTTSTVIDGSQSTDDDKIVQYHWEELKGPLREEKISGDTAILKLSKLVPGNYTFSLTVVDSDGATNSTTANLTVNKAVDHHHHHH
Question: B16 was tested. Which “Residual activity [%]” value did it give?
Answer: Its value is 78.1%.

B17: AAV-binding protein No. 25 (Asn324Asp, Tyr355His) (receptor)
chain: MGSAGESVQITLPKDEVQLNAYVLQEPPKGETYTYDWQLITHPRDHSGEMEGKHSQILKLSKLTPGLYEFKVIVEGQNAHGEGYVNVTVKPEPRKNRPPIAIVSPQFQEISLPTTSTVIDGSQSTDDDKIVQYHWEELKGPLREEKISEDTAILKLSKLVPGNYTFSLTVVDSDGATNSTTANLTVNKAVDHHHHHH
Question: With B17 as the binder, how does the “Residual activity [%]” value read?
Answer: Its value is 77.6%.

B18: AAV-binding protein No. 51 (Leu333Pro, Pro337Leu, Thr350Met) (receptor)
chain: MGSAGESVQITLPKNEVQLNAYVPQEPLKGETYTYDWQLIMHPRDYSGEMEGKHSQILKLSKLTPGLYEFKVIVEGQNAHGEGYVNVTVKPEPRKNRPPIAIVSPQFQEISLPTTSTVIDGSQSTDDDKIVQYHWEELKGPLREEKISEDTAILKLSKLVPGNYTFSLTVVDSDGATNSTTANLTVNKAVDHHHHHH
Question: For B18, which “Residual activity [%]” value is on record?
Answer: Its value is 66.7%.

B19: AAV-binding protein No. 44 (Gln327Arg, Lys338Arg, Leu348Pro) (receptor)
chain: MGSAGESVQITLPKNEVRLNAYVLQEPPRGETYTYDWQPITHPRDYSGEMEGKHSQILKLSKLTPGLYEFKVIVEGQNAHGEGYVNVTVKPEPRKNRPPIAIVSPQFQEISLPTTSTVIDGSQSTDDDKIVQYHWEELKGPLREEKISEDTAILKLSKLVPGNYTFSLTVVDSDGATNSTTANLTVNKAVDHHHHHH
Question: With B19 as the binder, how does the “Residual activity [%]” value read?
Answer: Its value is 76.1%.

B20: AAV-binding protein No. 40 (Phe379Ser, Lys455Arg) (receptor)
chain: MGSAGESVQITLPKNEVQLNAYVLQEPPKGETYTYDWQLITHPRDYSGEMEGKHSQILKLSKLTPGLYESKVIVEGQNAHGEGYVNVTVKPEPRKNRPPIAIVSPQFQEISLPTTSTVIDGSQSTDDDKIVQYHWEELKGPLREERISEDTAILKLSKLVPGNYTFSLTVVDSDGATNSTTANLTVNKAVDHHHHHH
Question: With B20 as the binder, how does the “Residual activity [%]” value read?
Answer: The value was 77.4%.

B21: AAV-binding protein No. 41 (Glu453Gly, Ser476Arg) (receptor)
chain: MGSAGESVQITLPKNEVQLNAYVLQEPPKGETYTYDWQLITHPRDYSGEMEGKHSQILKLSKLTPGLYEFKVIVEGQNAHGEGYVNVTVKPEPRKNRPPIAIVSPQFQEISLPTTSTVIDGSQSTDDDKIVQYHWEELKGPLRGEKISEDTAILKLSKLVPGNYTFRLTVVDSDGATNSTTANLTVNKAVDHHHHHH
Question: B21 was tested. Which “Residual activity [%]” value did it give?
Answer: Its value is 56.1%.

B22: AAV-binding protein No. 37 (Gln365Arg, His389Gln) (receptor)
chain: MGSAGESVQITLPKNEVQLNAYVLQEPPKGETYTYDWQLITHPRDYSGEMEGKHSRILKLSKLTPGLYEFKVIVEGQNAQGEGYVNVTVKPEPRKNRPPIAIVSPQFQEISLPTTSTVIDGSQSTDDDKIVQYHWEELKGPLREEKISEDTAILKLSKLVPGNYTFSLTVVDSDGATNSTTANLTVNKAVDHHHHHH
Question: With B22 as the binder, how does the “Residual activity [%]” value read?
Answer: Its value is 70.1%.

B23: AAV-binding protein No. 23 (Asn487Asp) (receptor)
chain: MGSAGESVQITLPKNEVQLNAYVLQEPPKGETYTYDWQLITHPRDYSGEMEGKHSQILKLSKLTPGLYEFKVIVEGQNAHGEGYVNVTVKPEPRKNRPPIAIVSPQFQEISLPTTSTVIDGSQSTDDDKIVQYHWEELKGPLREEKISEDTAILKLSKLVPGNYTFSLTVVDSDGATDSTTANLTVNKAVDHHHHHH
Question: Which “Residual activity [%]” value does the source give for B23 here?
Answer: Its value is 58.3%.

B24: AAV-binding protein No. 27 (Tyr331Cys, Leu376Pro) (receptor)
chain: MGSAGESVQITLPKNEVQLNACVLQEPPKGETYTYDWQLITHPRDYSGEMEGKHSQILKLSKLTPGPYEFKVIVEGQNAHGEGYVNVTVKPEPRKNRPPIAIVSPQFQEISLPTTSTVIDGSQSTDDDKIVQYHWEELKGPLREEKISEDTAILKLSKLVPGNYTFSLTVVDSDGATNSTTANLTVNKAVDHHHHHH
Question: For B24, which “Residual activity [%]” value is on record?
Answer: The value was 74.4%.
